Assay results reported in paper PMC7261170 (Nucleic Acids Research, 2020).
Values belong to the binder of their own block, whether it stands above or below them.

Target: T1, CBP-CWC22-S (residues 100-665) (human, UniProt Q9HCG8 100-665)
T1 sequence (looked up): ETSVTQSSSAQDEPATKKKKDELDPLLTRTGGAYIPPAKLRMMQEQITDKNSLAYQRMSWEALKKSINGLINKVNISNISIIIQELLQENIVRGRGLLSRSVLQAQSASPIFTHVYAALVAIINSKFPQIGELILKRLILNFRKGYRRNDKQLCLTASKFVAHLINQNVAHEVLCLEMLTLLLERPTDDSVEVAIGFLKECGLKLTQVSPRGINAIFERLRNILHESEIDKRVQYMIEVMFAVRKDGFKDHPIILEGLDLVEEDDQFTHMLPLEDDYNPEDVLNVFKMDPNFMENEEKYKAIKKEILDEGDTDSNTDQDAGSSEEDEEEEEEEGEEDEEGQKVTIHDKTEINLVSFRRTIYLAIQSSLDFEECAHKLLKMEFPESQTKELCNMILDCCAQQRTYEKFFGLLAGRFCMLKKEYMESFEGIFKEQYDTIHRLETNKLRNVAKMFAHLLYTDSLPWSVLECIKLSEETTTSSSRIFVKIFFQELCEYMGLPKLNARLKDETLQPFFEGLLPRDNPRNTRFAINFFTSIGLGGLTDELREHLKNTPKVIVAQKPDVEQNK
Experiment: pull-down

- binding result: binds
B1: PTS-CWC27 (1-472) (natural protein, human, UniProt Q6UX04 1-472, looked up)
chain: MSNIYIQEPPTNGKVLLKTTAGDIDIELWSKEAPKACRNFIQLCLEAYYDNTIFHRVVPGFIVQGGDPTGTGSGGESIYGAPFKDEFHSRLRFNRRGLVAMANAGSHDNGSQFFFTLGRADELNNKHTIFGKVTGDTVYNMLRLSEVDIDDDERPHNPHKIKSCEVLFNPFDDIIPREIKRLKKEKPEEEVKKLKPKGTKNFSLLSFGEEAEEEEEEVNRVSQSMKGKSKSSHDLLKDDPHLSSVPVVESEKGDAPDLVDDGEDESAEHDEYIDGDEKNLMRERIAKKLKKDTSANVKSAGEGEVEKKSVSRSEELRKEARQLKRELLAAKQKKVENAAKQAEKRSEEEEAPPDGAVAEYRREKQKYEALRKQQSKKGTSREDQTLALLNQFKSKLTQAIAETPENDIPETEVEDDEGWMSHVLQFEDKSRKVKDASMQDSDTFEIYDPRNPVNKRRREESKKLMREKKERR

- binding result: binds
B2: CWC27-C (354-472) (domain or fragment, human, UniProt Q6UX04 354-472, looked up)
chain: DGAVAEYRREKQKYEALRKQQSKKGTSREDQTLALLNQFKSKLTQAIAETPENDIPETEVEDDEGWMSHVLQFEDKSRKVKDASMQDSDTFEIYDPRNPVNKRRREESKKLMREKKERR
